Assay results reported in patent US10940198B2, “Herpes zoster vaccine composition” (MOGAM INSTITUTE FOR BIOMEDICAL RESEARCH, priority 2016, dated 2021).

Legend:
VZV antigen = test: VZV antigen-specific IgG titer (ELISA) after immunization; type: in vivo, C57BL/6 mice; conditions: Experimental Example 10, FIG. 12; gE alone versus gE together with gI or IE63 antigen
Procedure: (§1) Since humans have a history of chickenpox infection, in order to mimic chickenpox infection in mice, live attenuated vaccine (LAV, 3000 pfu) was subcutaneously injected once to female C57BL/6 mice to perform primary immunization (LAV priming). After 28 days from the LAV priming (Day 0), various VZV vaccine compositions with or without VZV protein immunogen or adjuvant were administered by intramuscular injection to perform secondary immunization. […]
After performing the primary immunization and the secondary immunization, ELISA (enzyme-linked immunosorbant assay) was carried out for measuring VZV antigen-specific IgG titer. […] The HRP reaction was stopped by adding ELISA stop solution and optical density (OD) was measured using a spectrometer at a wavelength of 450 nm.
Various VZV antigen-specific IgG titers depending on the use of SLA-SE were determined in the same manner as in Experimental Example 2-1 except that any one of gE, gI, IE63, gB, gC, and gL was used as an antigen in the secondary immunization and SLA-SE was used as an adjuvant, and the results are summarized in FIGS. 8 and 9. […]

entire VZV (VZV lysate) = test: IFN-γ ELISPOT assay, leukocyte stimulation with VZV lysate; type: in vivo, C57BL/6 mice; conditions: Experimental Example 10, FIG. 12; gE alone versus gE together with gI or IE63 antigen
Procedure: as §1
After performing the primary immunization and the secondary immunization, mouse IFN-γ ELISPOT (enzyme-linked immunospot) assay was carried out to confirm VZV antigen-specific cell-mediated immune response (CMI). […] The number of the resulting spots were counted with a device.
The gE protein, gE OLP, or VZV lysate-specific cell-mediated immune responses were measured according to the method of Experimental Example 2-2 (IFN-γ ELISPOT assay), and the experimental results are summarized in FIGS. 3, 4, and 5. […]
The gE protein, gE OLP, or VZV lysate-specific cell-mediated immune responses were measured according to the method of Experimental Example 2-2 (IFN-γ ELISPOT assay), and the experimental results are summarized in FIGS. 15, 16, and 17.

B1: gE antigen: VZV glycoprotein E of SEQ ID NO: 1 (protein)
chain: MGTVNKPVVGVLMGFGIITGTLRITNPVRASVLRYDDFHTDEDKLDTNSVYEPYYHSDHAESSWVNRGESSRKAYDHNSPYIWPRNDYDGFLENAHEHHGVYNQGRGIDSGERLMQPTQMSAQEDLGDDTGIHVIPTLNGDDRHKIVNVDQRQYGDVFKGDLNPKPQGQRLIEVSVEENHPFTLRAPIQRIYGVRYTETWSFLPSLTCTGDAAPAIQHICLKHTTCFQDVVVDVDCAENTKEDQLAEISYRFQGKKEADQPWIVVNTSTLFDELELDPPEIEPGVLKVLRTEKQYLGVYIWNMRGSDGTSTYATFLVTWKGDEKTRNPTPAVTPQPRGAEFHMWNYHSHVFSVGDTFSLAMHLQYKIHEAPFDLLLEWLYVPIDPTCQPMRLYSTCLYHPNAPQCLSHMNSGCTFTSPHLAQRVASTVYQNCEHADNYTAYCLGISHMEPSFGLILHDGGTTLKFVDTPESLSGLYVFVVYFNGHVEAVAYTVVSTVDHFVNAIEERGFPPTAGQPPATTKPKEITPVNPGTSPLLR
modifications: Human herpesvirus 3
- VZV-specific antibody response (VZV antigen): not significantly different
- VZV-specific T cell response (entire VZV (VZV lysate)): not significantly different
